Each block holds one molecule with its values, some of them ahead of it. No end group written: not given here.
How the values were obtained:
[1] = target: T1, human colonic mucus (Muc2) (Homo sapiens, UniProt Q02817); test: Immunofluorescent staining of human mucus and fixed human colon samples; conditions: human mucus extract collected on ex vivo tissues
T1 construct: Segments of human colon (ascending, descending and sigmoid colon) were obtained from fully informed patients undergoing surgery; from tissue; host or cells: healthy human colon segments (live explants, mucus collected from them, Carnoy- or formol-fixed sections)
Source text: (§1) FIGS. 4A-4B. Cy5-MUB70 is specifically binding to the glycosylated moiety of Muc2 secreted in the colon mucus layer. (FIG. 4A) Immunodetection of Muc2, Muc5ac, Muc5b and Muc6 (dotblot analysis) on human mucus extracts eluted after a pulldown assay performed with biot-MUB70 on avidin conjugated beads (see Methods). Biotin is used as a negative control. Immunodetection of Muc2 (dotblot analysis) on deglycosylated mucus extracts eluted after a pulldown assay performed with biot-MUB70 on avidin conjugated beads. Non-deglycosylated mucus extract is used as a positive control. (FIG. 4B) Co-localization of Muc2 (green) and Cy5-MUB (blue) observed on fixed (Carnoy) human colon samples. Actin is stained in red (Phall.RRX). Observations are performed using a confocal microscope. Bars is 20 μm.
FIGS. 9A-9B. (FIG. 9A) Co-localization of Muc2 (green) and Cy5-MUB (blue) performed by immunofluorescent detection on human mucus extract collected on ex vivo tissues using an epifluorescent microscope. Bar is 50 μm. […]
For immunofluorescence assay mouse α-MUC2 pAbs (Santa Cruz sc-15334) was diluted 1:1000 and FITC-conjugated rabbit anti-mouse was diluted 1:2000. Host cells were detected with DAPI (nuclei, […]) or using Phalloidin-Rhodamine red X (RRX)-conjugated donkey anti-mouse antibodies (Jackson Immunoresearch Antibodies) as an actin marker (stained red); both were used at a final dilution of 1:1000. […]

[2] = target: T2, human colonic mucus and goblet cells (Homo sapiens, UniProt Q02817); test: Fluorescent staining of healthy human colon, formol fixed, paraffin embedded samples; conditions: fixed samples, 1 μg/mL
T2 construct: Segments of human colon (ascending, descending and sigmoid colon) were obtained from fully informed patients undergoing surgery; from tissue; host or cells: healthy human colon segments (live explants, mucus collected from them, Carnoy- or formol-fixed sections)
Experimental: FIG. 22. Schematic description of the Cy5-MUB40-1, Cy5-MUB40-2, Cy5-MUB40-3, Cy5-MUB40-4 peptides (SEQ ID NOS 62 to 65). Fluorescent staining of human colonic mucus was performed by the addition of 1 μg/mL of the corresponding Cy5-conjugated peptides with Phalloidin-RRX (1:100) on formol fixed, paraffin embedded samples. Image acquisition was performed using a fluorescent confocal microscope (see Methods).
FIG. 23 Comparative staining analysis of human colonic goblet cells using Cy5-MUB70 and Cy5-MUB40-1. Fluorescent staining of human colonic mucus was performed by the addition of 1 μg/mL of the corresponding Cy5-conjugated peptides with Phalloidin-RRX (1:100) on formol fixed, paraffin embedded samples. Image acquisition was performed using a fluorescent confocal microscope (see Methods).
FIGS. 24A-24B. Comparative human colonic mucus staining using MUB70-Cy5 on healthy tissues and mucinous carcinomas (Coic et al, JBC, 2012 (41)). Fluorescent staining of human colonic mucus was performed by the addition of 1 μg/mL of the corresponding Cy5-conjugated peptides with Phalloidin-RRX (1:100) on formol fixed, paraffin embedded samples. Image acquisition was performed using a fluorescent confocal microscope (see Methods).
As colonic mucinous carcinomas are characterized by abnormal overproduction of Muc2 in the colon mucosa (40), the inventors have hypothesized that Cy5-MUB70 could be used as a novel fluorescent marker for the diagnosis of this pathology. […] As shown previously on a healthy colon (FIG. 3B), the luminal mucus secreted fraction is detected by Cy5-MUB70 (FIG. 24A, top panel). […] This observation might be the consequence of a higher level of mucus compaction, resulting in a lower accessibility for MUB70 to bind Muc2. […] Cy5-MUB70 has been validated as a potent innovative diagnostic tool for colonic mucinous carcinoma detection and might be optimized with alternative markers (e.g. biotin) for practical clinical applications.

[3] = test system: human neutrophil (PMN) granules; test: Human neutrophil (PMN) granule staining; format: cell-based; conditions: for PMN granule staining: PMN purified from human blood, fixed in 4% PFA, 1 μg/mL; for signal brightness of PMN granule staining: fixed PMN, compared among Cy5-MUB40 probes
Experimental: FIG. 14. Staining of individual neutrophiles (white blood cells) in human blood sample. Cy5-MUB70 was incubated on ethanol 100% fixed blood sample. […] (Details are provided on the Figure). […] In particular, granules staining is achieved.
FIG. 15. Staining of individual neutrophiles (white blood cells) purified from fresh human blood sample. Cy5-MUB70 was incubated on PFA 4% fixed neutrophiles (PFA treatment for 15 min, wash 3 times in PBS). Signal was detected as dots distributed in neutrophile cytoplasms. (Staining with Dapi 1:1000 and EB1C5 1:1000 in PBS+10% FCS+0.1% Saponin). […] In particular, granules staining is achieved.
FIG. 29. Identification of Muc2 in neutrophile granules using MUB70-Cy5. Human neutrophil (PMN) granule staining using Cy5-MUB70. PMN were purified from healthy donor blood samples and fixed in the presence of 4% PFA. Fluorescent staining of human colonic mucus was performed by the addition of 1 μg/mL of Cy5-MUB70 (Red) with Dapi (1:100) (Blue) and 1:200 anti-Muc2 antibody (Green). Image acquisition was performed using a fluorescent confocal microscope (see Methods).
FIG. 31. Identification of Muc2 in neutrophile granules. Human neutrophil (PMN) granule staining using Cy5-MUB40-1, Cy5-MUB40-2, Cy5-MUB40-3, Cy5-MUB40-4 peptides. Schematic description of the Cy5-conjugated peptides. PMN were purified from healthy donor blood samples and fixed in the presence of 4% PFA. Fluorescent staining of human colonic mucus was performed by the addition of 1 μg/mL of the Cy5-conjugated peptides (Green) with Dapi (1:100) (Blue) and Phalloidin-RRX (1:1000) (Red). Image acquisition was performed using a fluorescent confocal microscope (see Methods).
The invention has also proven to be useful for the monitoring of neutrophile degranulation events, in particular by using MUB70 and/or MUB40 polypeptides or polypeptides sharing identity with MUB70 and/or MUB40 polypeptides, or fragments thereof, for labelling neutrophile granule(s).

[4] = Analytical gel filtration for quaternary structure; format: physicochemical; conditions: gel filtration at 0.1 and 1 mg/ml; phosphate buffer
Experimental: FIGS. 7A-7D. Biochemical properties of MUB70. (FIG. 7A) MUB70 total charge was calculated using Protein Calculator program (Scripps website). (FIG. 7B) Kytes and Doolittle hydropathy profile of MUB70 was generated using ExPASy bioinformatical tools. (FIG. 7C) Validation of biot-MUB70 purity by gel filtration chromatography on Superdex 200 5/150 GL column. (FIG. 7D) Partition coefficients (Kav) of the standard proteins (ferritin, 440 kDa; aldolase, 158 kDa; ovalbumin, 43 kDa; ribonuclease A, 13.7 kDa; aprotinin, 6.5 kDa) were calculated according to Kav=(Ve−V0)/(Vt−V0) (Ve, elution volume; V0, void volume; Vt, total volume of the gel bed) and plotted against the corresponding molecular masses. The molecular mass of biot-MUB70 calculated using the calibration curve equation: log(Mr)=3.12−3.1 Kav.
[…] Standard proteins from the gel filtration calibration kit (ferritin, aldolase, ovalbumin, ribonuclease A, aprotinin; GE Healthcare, Uppsala, Sweden) were used for calibration. As control biot-MUB70 was visualized on 10% SDS-PAGE gel stained by Coomassie.
The theoretical molecular weight (MW) of a biotinylated MUB70 (biot-MUB70) is 8.8 kDa. […] This observation was confirmed with the fluorescent Cy5-MUB70 compound (data not shown). […] The elution profile was recorded at 280 nm. […]

[5] = target: T3, Muc2 (Homo sapiens, UniProt Q02817); test: Pulldown assay with dot blot immunodetection, Muc2; format: binding
T3 construct: human colonic mucus extracts (produced in vitro from differentiated HT-29 MTX cells, see Methods); endogenous in cells; host or cells: HT-29 MTX human colonic epithelial cells, differentiated (21 days)

[6] = target: T4, Muc5ac (Homo sapiens, UniProt P98088); test: Pulldown assay with dot blot immunodetection, Muc5ac; format: binding; conditions: soluble human colonic mucus extract from HT-29 MTX; detected in the input
T4 construct: soluble human colonic mucus extracts were initially obtained from HT-29 MTX cell secretion product; endogenous in cells; host or cells: HT-29 MTX cells (secreted mucus, soluble fraction)
Source text: as §1, with “μm. […]” for “μm.”
(§2) Soluble mucus components used in pulldown assays (input and output) were transferred to nitrocellulose membranes (Invitrogen), which were blocked in PBS/5% milk and further incubated with the primary antibodies diluted in PBS/1% milk/0.01% Tween20 (Sigma-Aldrich) overnight. […] Antibody binding was detected with chemiluminescence (ECL kit, GE Healthcare).

[7] = target: T5, Muc5b (Homo sapiens, UniProt Q9HC84); test: Pulldown assay with dot blot immunodetection, Muc5b; format: binding; conditions: soluble human colonic mucus extract from HT-29 MTX; detected in the input
T5 construct: soluble human colonic mucus extracts were initially obtained from HT-29 MTX cell secretion product; endogenous in cells; host or cells: HT-29 MTX cells (secreted mucus, soluble fraction)
Source text: as §1, with “μm. […]” for “μm.”
as §2

[8] = target: T6, Muc6 (Homo sapiens, UniProt Q6W4X9); test: Pulldown assay with dot blot immunodetection, Muc6; format: binding; conditions: soluble human colonic mucus extract from HT-29 MTX; detected in the input
T6 construct: soluble human colonic mucus extracts were initially obtained from HT-29 MTX cell secretion product; endogenous in cells; host or cells: HT-29 MTX cells (secreted mucus, soluble fraction)
Source text: as §1, with “μm. […]” for “μm.”
as §2

T6 sequence (Q6W4X9 23-2439): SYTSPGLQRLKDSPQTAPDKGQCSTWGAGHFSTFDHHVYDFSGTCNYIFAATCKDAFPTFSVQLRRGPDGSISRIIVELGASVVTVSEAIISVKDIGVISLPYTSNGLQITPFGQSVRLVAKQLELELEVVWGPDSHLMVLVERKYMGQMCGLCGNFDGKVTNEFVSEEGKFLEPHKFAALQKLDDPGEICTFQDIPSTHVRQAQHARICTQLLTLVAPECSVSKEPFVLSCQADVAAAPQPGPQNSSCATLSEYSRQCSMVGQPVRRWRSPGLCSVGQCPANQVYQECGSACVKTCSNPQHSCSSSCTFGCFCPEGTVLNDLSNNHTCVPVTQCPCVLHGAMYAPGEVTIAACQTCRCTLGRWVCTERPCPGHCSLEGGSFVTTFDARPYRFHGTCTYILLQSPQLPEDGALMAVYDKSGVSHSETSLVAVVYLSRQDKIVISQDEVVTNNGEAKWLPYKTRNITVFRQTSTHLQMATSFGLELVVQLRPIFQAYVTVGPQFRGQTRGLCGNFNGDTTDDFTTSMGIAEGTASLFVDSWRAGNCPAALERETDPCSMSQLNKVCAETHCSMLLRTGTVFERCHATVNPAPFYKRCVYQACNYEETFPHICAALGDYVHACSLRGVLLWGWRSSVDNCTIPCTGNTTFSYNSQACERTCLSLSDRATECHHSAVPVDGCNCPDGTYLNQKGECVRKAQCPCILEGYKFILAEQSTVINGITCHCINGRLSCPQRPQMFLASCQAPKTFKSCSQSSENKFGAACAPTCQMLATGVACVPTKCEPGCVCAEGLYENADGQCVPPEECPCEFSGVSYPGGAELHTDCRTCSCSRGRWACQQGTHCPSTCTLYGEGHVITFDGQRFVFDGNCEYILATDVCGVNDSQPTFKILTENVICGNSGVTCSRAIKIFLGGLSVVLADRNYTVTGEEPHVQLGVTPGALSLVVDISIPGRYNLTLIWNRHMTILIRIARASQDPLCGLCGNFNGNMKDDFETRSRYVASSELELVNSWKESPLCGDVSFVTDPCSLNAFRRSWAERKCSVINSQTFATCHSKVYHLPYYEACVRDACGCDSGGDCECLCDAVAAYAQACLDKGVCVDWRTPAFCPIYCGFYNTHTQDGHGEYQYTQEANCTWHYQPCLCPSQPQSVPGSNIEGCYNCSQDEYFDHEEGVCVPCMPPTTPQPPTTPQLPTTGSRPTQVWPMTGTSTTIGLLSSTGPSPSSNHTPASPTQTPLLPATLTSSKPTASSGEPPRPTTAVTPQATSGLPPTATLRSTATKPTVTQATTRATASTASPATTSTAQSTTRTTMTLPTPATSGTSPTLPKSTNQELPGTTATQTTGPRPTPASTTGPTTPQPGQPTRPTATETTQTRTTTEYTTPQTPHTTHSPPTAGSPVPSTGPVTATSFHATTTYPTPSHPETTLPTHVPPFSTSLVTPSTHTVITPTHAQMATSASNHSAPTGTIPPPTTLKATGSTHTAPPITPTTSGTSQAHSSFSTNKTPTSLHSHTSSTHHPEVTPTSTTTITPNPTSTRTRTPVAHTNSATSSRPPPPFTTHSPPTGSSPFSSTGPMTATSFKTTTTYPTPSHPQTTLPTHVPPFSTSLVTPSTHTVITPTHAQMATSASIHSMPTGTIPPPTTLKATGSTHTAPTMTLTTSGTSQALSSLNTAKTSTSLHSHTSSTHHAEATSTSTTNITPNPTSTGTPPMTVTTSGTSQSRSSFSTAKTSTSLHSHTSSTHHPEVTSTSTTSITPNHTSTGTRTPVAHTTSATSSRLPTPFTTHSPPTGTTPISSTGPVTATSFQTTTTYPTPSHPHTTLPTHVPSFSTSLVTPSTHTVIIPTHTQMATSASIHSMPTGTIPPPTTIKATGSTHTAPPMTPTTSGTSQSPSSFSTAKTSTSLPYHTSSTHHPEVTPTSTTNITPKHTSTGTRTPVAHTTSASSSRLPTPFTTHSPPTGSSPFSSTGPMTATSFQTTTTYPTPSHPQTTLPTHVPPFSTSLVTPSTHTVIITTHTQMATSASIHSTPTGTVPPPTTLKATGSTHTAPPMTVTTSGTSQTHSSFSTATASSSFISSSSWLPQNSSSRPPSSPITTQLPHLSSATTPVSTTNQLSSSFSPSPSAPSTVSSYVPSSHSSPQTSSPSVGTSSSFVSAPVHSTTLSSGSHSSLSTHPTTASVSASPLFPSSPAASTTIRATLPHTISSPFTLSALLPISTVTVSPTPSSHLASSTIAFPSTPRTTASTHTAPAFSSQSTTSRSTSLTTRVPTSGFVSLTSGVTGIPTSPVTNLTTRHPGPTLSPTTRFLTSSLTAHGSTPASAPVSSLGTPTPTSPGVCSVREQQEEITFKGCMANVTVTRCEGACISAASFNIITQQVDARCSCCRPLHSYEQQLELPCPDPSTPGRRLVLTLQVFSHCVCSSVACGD

Molecule: CCN1/C(=C/C=C/C=C/C2=[N+](CCCCCC(=O)O)c3ccc(S(=O)(=O)O)cc3C2(C)C)C(C)(C)c2cc(S(=O)(=O)[O-])ccc21 [Cy5, reference compound]
- human mucus binding [1]: does not have the property to bind human mucus

- human mucus binding ([2]; human colonic mucus): functional human mucus-binding peptide
Molecule: Cy5-MUB40-1: Cy5-conjugated MUB40-1 peptide with N-terminal cysteine (SEQ ID NO: 62) (C(Cy5)TAEGIKKFEGDGYELFKDNFPAGEKFDNDDTNDQFYTVIF; not fully specified)
- goblet cells binding ([2]; human colonic goblet cells): possessing globlet-cells binding properties
- PMN granule staining [3]: efficiently stained
- signal brightness of PMN granule staining [3]: brighter signal

Molecule: Cy5-MUB40-2: Cy5-conjugated MUB40-2 peptide with N-terminal cysteine (SEQ ID NO: 63) (C(Cy5)GYTDETIPYSTAEGIKKFEGDGYELFKDNFPAGEKFDNDD; not fully specified)
- PMN granule staining [3]: efficiently stained

Molecule: Cy5-MUB40-3: Cy5-conjugated MUB40-3 peptide with N-terminal cysteine (SEQ ID NO: 64) (C(Cy5)DQMLRQDDLDGYTDETIPYSTAEGIKKFEGDGYELFKDNF; not fully specified)
- PMN granule staining [3]: efficiently stained

Molecule: Cy5-MUB40-4: Cy5-conjugated MUB40-4 peptide with N-terminal cysteine (SEQ ID NO: 65) (C(Cy5)VHVQYIDGETDQMLRQDDLDGYTDETIPYSTAEGIKKFEG; not fully specified)
- PMN granule staining [3]: efficiently stained
- signal brightness of PMN granule staining [3]: brighter signal

- Muc2 interaction after chemical deglycosylation of mucus extract ([5]; chemically deglycosylated mucus extract): abolished the interaction
- Muc2 interaction after desulfatation of mucus extract ([5]; desulfatation (glycosylsulfatase)): loss of this interaction
- Muc2 in eluted fraction of pulldown ([5]; soluble human colonic mucus extract from HT-29 MTX, avidin beads): immunodectected in the eluted fraction
- Muc5ac in eluted fraction of pulldown [6]: absent from the eluted fraction
- Muc5b in eluted fraction of pulldown [7]: absent from the eluted fraction
- Muc6 in eluted fraction of pulldown [8]: absent from the eluted fraction
B1: biot-MUB70: biotinylated form of MUB70 (maleimide-PEG2-biotin on N-terminal cysteine) (conjugate)
peptide: CVHVQYIDGETDQMLRQDDLDGYTDETIPYSTAEGIKKFEGDGYELFKDNFPAGEKFDNDDTNDQFYTVIF
- quaternary structure [4]: exists as trimer

— patent publication US10138280B2, “Polypeptides targeting glycosylated MUC2 proteins, methods of synthesis, their nucleic acids and uses thereof” (INSTITUT PASTEUR, priority 2011, dated 2018)
